Assay results published in the nanobody polyreactivity screen of Harvey et al. (2022).

Assay: yeast display, Sf9 membrane polyspecificity reagent, FACS + sequencing; frameworks hold sequencing errors
Outline: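 Sorting gates, low and high (top ~1%), were placed on anti-HA fluorescence to track expression and on streptavidin fluorescence to track reagent binding. A clone's polyreactivity label is taken from the gate it came out of. The reagent was 10% biotinylated, detergent-solubilized Sf9 membrane, applied for 1 hour at 4 °C to galactose-induced yeast display cells.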

Sequence | polyreactivity (PSR sort gate)
QVKLVESVGGLVQAGGSLRLTCAASGIIFPVYAMGRYRQAPGKERQLVSAITYSGDRTYYADSVKGRFTISSDNAKNTVYLQMHSLKPEDTAVYYCNARFGVWPYFYNEDDYWGQGTQVTVSS | low polyreactivity
QVKRVESGGGLVQAGGSLRLSCAASGSIFDEYAMGWYIQAPGKERELVAAITRTGGRTYYADSVKGRFTISRENAKNSVYLQMNSLIPEDTAVYFCNAPSRTRYDYWGQGTQVTVSS | low polyreactivity
QVLLQEIGGGLVQAGGSLRLCCAASGYISGDQFMGWYRQAPGKEPECVAGIGNGTNSNYADSVKGRFTTSRDNAKNTVYLQMNILKPEDTAVYYCAADPSDGSTLAFWGQGTQVTVSS | high polyreactivity
QVLLQESGGCLVQAGGSMRLSCAASGYISSWYPMGWYRQAPGKEREFVATIAPGATTYYADSVKGRFTISRDYAKTTVYLQMNSLKPEDTAVSYCAAGPENNDFYSYWGQGTQVTVSR | low polyreactivity
QVLLQESGGGLVQAGGSLRLCCAASGYISGDQIMGWYRQAPGKDREFVAGIGNGTNTNYADSVKGRFTTSRDNAKNTVYLQMNSLNPEDTAVYYCPADPSDGSTLAYWGQGTQVTVSS | high polyreactivity
QVLLQESGGGLVQAGGSLRLGCAASGTISHAYYMGRYHQAPGKEREFVAAITYGTNTYYADSVKGRFTISRDNAKNTVYLQMNSLKPEDTAVYYCSATAGYNGAHDYWGQGTQVTVSS | low polyreactivity
QVLLQESGGGLVQAGGSLRLSCAASGNIFSAGGMGWYRQAPVNERELVAGIGTGTSTNYADSVKGRFTISRDNSKNTVYLQMNSMKPEDTAVYYCAAAYYSGLSHWYWGQGTQVTVSS | low polyreactivity
QVLLQETGGGLVQAGGSLSLSCAASGTISTDIRMGWYRLAPGKEREFVASIDGCSTTYYADSVKGRFTFSRDNAKNTVYLQMNRLIPEDTSMYYCAAREATEFYLYYWGQGTQVTVSS | low polyreactivity
QVLLVESGGGIVQAGGSLRLSCSASGIIFPCYAMGWYRQAPGKERELLAAISSSGSSTYYADSVMGRFTITRDNAKNTVYLQMNSLKPEDTAVYYCAAVRYGMRRMDYWGQGTQVTVSS | high polyreactivity
QVLLVESGGGLGQAGGSLRLSCAASGAIFVGYAMGWYRQAPGKEREMVAAISKSGGSTYYADSVKGRFTISRDNAKNTVYLQMKSLKPDDTAVYYCAAYPVRLVYSQHRYLYDYWGQGTQVTVSS | high polyreactivity
QVLLVESGGGLVQAGGSLRLICDDSGFIFTYYAMGLYRQAPVTEREFVAAIRASGGSTYYSYSVKGRFTISRDKAQNTVYLQMNSLKPEETAVYYCAARYRQRLRSTSYDYWGQGTQVTVSS | high polyreactivity
QVLLVESGGGLVQAGGSLRLSCAASGRTFVTNAMGWYTQAPGKERELVAGITRRGGSTYYADSVKGRFTISRDNAKNTVYLQMNSLKPEDTAVYYCARRGDTSTRYYYWGQGTQVTVSS | high polyreactivity
QVLLVESGGGLVQAGGSLRLSCAASGRTSFQYAMGWYSQAPGTDRELVAALSWSGGATVYADSVKGRFTISRDNAKNTDYLQMNSLKPEDTAVYYCAKRRRLDQNTCYGLDYWGQGTQGTVSS | low polyreactivity
QVLLVESGGGLVQAGGSLRLSCAASGSTFFFNAMGSSRQAPGKEWELVATISRDGSTNYADSVKGRFTISRDNAKNTVYLQMNSLKPEDTAVYYCAAGWGWPYHQYDYWGQGTQVTVSS | low polyreactivity
QVLLVESGGGLVQAGGSLRLSCAASGSTFSQYAMGWNRQAPGKERELVAAIDSGSNTKYADSVKGRFTISRDHAKNTVYLQMNSLKPEDTAVYYCAADDSYRSIGGDYWGQGTQVTVSS | low polyreactivity
QVLLVESGGGLVQAGGSLRLSWAASGSIFTIYAMGWYRKAPGQERELVAAMNRGDGTNYADSVKGRFTISRDKAKNTVYLQMKSLKPEDTPVYYCAAEYYTEYQKWFDYWGQGTQVTLSS | high polyreactivity
QVLLVESGGGLVQEGGSLRLSCAASGIIFQFYAMGWYRQAPGKERELVAAISRSGGITHYADSVKGRFTISRDNAKNTVYLQMNSLKPEDTAVYYCAAVRQAYPRLDYWGQGTQVTVSS | high polyreactivity
QVLLVESGGGLVQSGRSLRLSCAASGLIFSRYAMGWYRPAPGKERELVAAITSGTSTYYADSVKGRFTISRDNAKNTVYLQLNSLIPEDTAVYYCAARWLTFNARYYPYYYWGQGTQVTVSS | high polyreactivity
QVLLVESGGVLVQAGGSLRLSCAASGSTFWSYAMGWYRQAPGKERELVAAISWSGDSTYYADSVKGRFTISRDNAKNTVYLQMNSLKPEDTAVYYCAADYVGGSYEYEYWGQGTQVTVSS | low polyreactivity
QVLLVESGPGLVQAGGSLRLSCAASGSTLYYYAMGWYRQAPGKERELVAAITWSGDSTYYADSVKGRFTISRYNAKNTVYLQMNSLIPEDTAVYYCASEVESYDQYYTYDYWGQGTQVTVSS | high polyreactivity
QVLLVVSGGGLVQAGGSLRLSCAASGFTFDTYAMGWNRQAPGKERELVAVITRGGSTNYADSVNGRFTISRDNAKNTVYLQMNSLKPEDTALYFCAAEHRNTYTFARDYYWGQGTQVTVSS | high polyreactivity

Sequence | polyreactivity (PSR sort gate)
QVLQQESCGLVQAGCSLRMSCAASGSISTALSMGWYRQAPGKERELVATISDGASTNYADSVKGRFTISRVNAKNTVYLQMNSLKPEDTAVYYFARYYFGNFGWGQGTQVTVSS | high polyreactivity
QVLRVESGGGLVQAGGSLRLSCSASGFIFRPNAMGWYRQAPGKERELVARITYRGGSTYYADSVKGRFTISRDNAKKTVYLQMNSLKPEDTEVYYCAARAVTYAGYTYNYWGQGSQVTVSS | high polyreactivity
QVLVVESGGCLVQAVGSLRLSCAAYGITCSRNALGWYRLAAGKERELVATITSGGSTNYADSVKGRFTISRDNAKNTVYLQMMSLKPEDPAVYFCNAVWNTFISGRSYDYWGQVTQVTVSS | low polyreactivity
QVNHVESGGGLVQAGGSLRLICAASGSTYNNAMGWYRQAPGKERELVAAIRWSGGSTYYADSVKGRFTISRDNANYTVYLQMNSLNPEDTAVYYCASAYRWSRKRYNDYDYWGQGSQVTVSS | high polyreactivity
QVNLVESGGGLVQAGGSLRLSCAASGRIFRKYAMGWYRQAPGKVREFVAAITVSGDRTYYADSVKGRFTISRDNAKNNVYLQMNSLKPEDTAVYYCATKGYYYPYVTYDYWGQGTQVTVSS | low polyreactivity
QVNLVESGGGLVQAGGSLRLSCAASGSIFSKNAMGWYRQAPGRERELVAAITSGASTNYADSVKGRFTISRDNAKNTVYLQMNSLKPEDTAVYYCASKRNGFWYGYWGQGTHVTVSS | low polyreactivity
QVNLVESGGGLVQAGGSLRLSCAASGSIFVGYAMRWYRQAPGKERELVAAISSNSASTYYADSVKGRFTISRDNAKNTLYLQMNSLKPEDTEVYYCATAYRSYWLNDYWGQGTQVTVSS | low polyreactivity
QVPLAETGGGLVQAGGSLRLSCASSGSIYRYAMGWYRKEPGKEREFVAANTWNGGSTYYADSVKGRLTRSLDYAKNTVYLPMNSLKPEDTAVYNCAADWSYFRRHFDYWVQGTQVTVSS | high polyreactivity
QVPLQVSGGYLVQAGGSVRLSCAASGTIYGLTALGWYRQAPGKEREFVAAITDGGNTNYADSVKGRFTISRDNAKNTVYLQMLSLKPEDTAVYYCAVLFSDDAYYAYWGQGTQVTVSS | low polyreactivity
QVPLVESAGGLVQAGGSLRLSCAASGITLYVYAKGWYRQAPGKERELVAAINSGGNTYYADSVKGRFTISRDNAKNTVYLQMNSLKPADTAVYYCAAVYPRQVSHVWRDDYWGQGTQVTVSS | high polyreactivity
QVPLVESGGGLVQAAGSLRLSCAASGRISLGYAMGWYRQAPGKERELVAAISRGGTNTYYADSVKGRFTISRDNAKNTVYLQMNSLKPEDTAVYYCAARYSWGQGTQVTVSS | high polyreactivity
QVPLVESGGGLVQAGGRLRISCAASGITCTFYSMGWYREAPGKESELVAAISRRGGSTYYADSVKGRFTISRDNEKNTVYLHMNSLKPEDTAVYYCAARGYRPMDYWGQGTQVTVSS | high polyreactivity
QVPLVESGGGLVQAGGSLRISCAASGSTFWYYAMGWYRQAPGKEREMVATITSTGTTNYADSVKGRFTISRDTAKNTVYLQMNSLKPEDTAVYYCNARSWSYSYPYLTYYYIAGYWGQGTQVTVSS | low polyreactivity
QVPLVESGGGLVQAGGSLRLSCAASGFIFPNYVMGWYRQEPGKEREFVAGISVRGGRTYYADSVKGRFTISRDNAKNTVYLQMNSLKPEDTAVYYCAADRKASAFNYWGQGTQVTVSS | high polyreactivity
QVPLVESGGGLVQAGGSLRLSCAASGLTFRDNAMGCSRQAPGKERELVAALSTNGGSTYYADSVTGRFTISRDNAKNTVYLQLNSLKPEDTALYVCAKSFLPQYPQVDSDYWGQGTQVTVSS | low polyreactivity
QVPLVESGGGLVQAGGSLRLSCAASGRTFPRYAMGWYRQAPGKERELVATISSGGSTNYADSVKGRFTISLDNAKNTVYLQMNSLKPEDTAVYYCAARYGRTYTRVGYWGQGTQVTVSS | high polyreactivity
QVPLVESGGGLVQAGGSLRLSCAASGSIFTVYAVGWYRQAPGKERELVASIRFSSGRTYYADSVKGRFTISRDNAKNTVYLHMTSLKPEDTAVYYCAAETVSWYRYYYWGQGTQVTVSS | high polyreactivity
QVPLVESGGGLVQSGGSLRLSCAASGSTCSRNAMGWYREAPGKERELVAAINDSGGSTYYADSVKGRFTISRDMAKNTVYLQMNSLKPEDTAVYYCNAVSPYYWDFRYDYWGQGTQVTVSS | high polyreactivity
QVPLVESGVGLVQAGGSLRLSCAASGYTFYSYAMGWYRQAPGKEREFVAAIRTGGGTNYADSVKGRFTISRDNAKNTVYLQMNSLKPEDTAVYYCAARYYSQKSYIGFRPGYEYWGQGTQVTVSS | low polyreactivity
QVQFVESGGGLVQAGGSLRLSCAASGSIFSSYAMGWYRQAPGKERELVAVINSGGSTNYADSVKGRFTISRDNAKNTVYLHMNSLKPEDTAVYYCNAYGGTFHNTAAEFDYWGQGTQVTVSS | low polyreactivity
